According to paper PMC8636100, “Peptibody Based on FGFR1-Binding Peptides From the FGF4 Sequence as a Cancer-Targeting Agent” (Frontiers in Pharmacology, 2021):
No end group written: not given here.

T1: extracellular domain (ECD) of FGFR1 fused to the Fc domain of human IgG1 (UniProt P11362 22-376, HiLyte488 dye (labelled form, used for the membrane overlay of FGFs and the PepSpot assay))
T1 construct: FGFR1 (fibroblast growth factor receptor 1), extracellular domain; Unlabelled in the pull-down (held on Protein A resin) and in SPR (amine-coupled); also called FGFR1-Fc; source: recombinant, produced as described previously (Sokolowska-Wedzina et al., 2014)
T1 sequence (looked up): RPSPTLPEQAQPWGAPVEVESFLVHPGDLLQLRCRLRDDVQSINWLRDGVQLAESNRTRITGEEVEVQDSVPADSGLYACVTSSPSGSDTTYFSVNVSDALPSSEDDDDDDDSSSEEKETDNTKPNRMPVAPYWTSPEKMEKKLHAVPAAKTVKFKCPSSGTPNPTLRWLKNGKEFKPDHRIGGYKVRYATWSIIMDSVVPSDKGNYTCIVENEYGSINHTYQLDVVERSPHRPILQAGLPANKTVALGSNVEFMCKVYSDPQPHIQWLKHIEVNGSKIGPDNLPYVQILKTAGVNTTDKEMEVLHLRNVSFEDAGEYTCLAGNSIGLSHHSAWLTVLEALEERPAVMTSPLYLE

B1: PepSpot peptide no. 19 of FGF4 (peptide)
peptide: KYPGMFIALSKNGKT
modifications: also: covalently bound to cellulose-β-alanine membrane
notes: also called peptide 19; source: synthetic peptide on cellulose membrane (PepSpot, JPT, Berlin)
B2: PepSpot peptide no. 15 of FGF4 (peptide)
peptide: SRFFVAMSSKGKLYG
modifications: also: covalently bound to cellulose-β-alanine membrane
notes: also called peptide 15; source: synthetic peptide on cellulose membrane (PepSpot, JPT, Berlin)
B3: PepSpot peptide no. 10 of FGF4 (peptide)
peptide: LRRLYCNVGIGFHLQ
modifications: also: covalently bound to cellulose-β-alanine membrane
notes: also called peptide F4_3; 4_3; source: synthetic peptide on cellulose membrane (PepSpot, JPT, Berlin)
B4: PepSpot peptide no. 21 of FGF4 (peptide)
peptide: RVSPTMKVTHFLPRL
modifications: also: covalently bound to cellulose-β-alanine membrane
notes: also called peptide 21; source: synthetic peptide on cellulose membrane (PepSpot, JPT, Berlin)
B5: PepSpot peptide no. 20 of FGF4 (peptide)
peptide: KNGKTKKGNRVSPTM
modifications: also: covalently bound to cellulose-β-alanine membrane
notes: source: synthetic peptide on cellulose membrane (PepSpot, JPT, Berlin)
B6: peptibodyF4_1 (Fc fusion)
chain: GIALSKNGKTKKGNRVSPTMKVTHFLPRL
notes: additional glycine residue as a spacer between the Fc domain and the targeting peptide; peptide F4_1, FGF4 residues 179-206; Peptide fused at the C-terminus of the Fc domain of human IgG1 (vector pLEV113); Labelled with DyLite650 for flow cytometry; not shown: Fc (human IgG1), N-terminal, kept
B7: FGF4 (ligand, UniProt P08620 31-206, looked up)
chain: APTAPNGTLEAELERRWESLVALSLARLPVAAQPKEAAVQSGAGDYLLGIKRLRRLYCNVGIGFHLQALPDGRIGGAHADTRDSLLELSPVERGVVSIFGVASRFFVAMSSKGKLYGSPFFTDECTFKEILLPNNYNAYESYKYPGMFIALSKNGKTKKGNRVSPTMKVTHFLPRL
notes: FGF4; Denatured by SDS-PAGE and held on PVDF in the overlay; native analyte in SPR; also called recombinant FGF4; fibroblast growth factor 4; source: recombinant, provided by Marta Minkiewicz and Martyna Sochacka from Protein Engineering Group
B8: peptibodyF4_3 (Fc fusion)
chain: GLRRLYCNVGIGFHLQ
notes: additional glycine residue as a spacer between the Fc domain and the targeting peptide; peptide F4_3, FGF4 residues 83-97; Peptide fused at the C-terminus of the Fc domain of human IgG1 (vector pLEV113); not shown: Fc (human IgG1), N-terminal, kept
B9: chymotryptic peptide of FGF4, region 136–150 (peptide)
peptide: FVAMSSKGKLYGSPF
notes: FGF4 residues 136-150; also called peptide F4_2; 4_2; source: digest of recombinant FGF4 with immobilized bovine chymotrypsin
B10: chymotryptic peptide of FGF4, region 179–206 (peptide)
peptide: IALSKNGKTKKGNRVSPTMKVTHFLPRL
notes: FGF4 residues 179-206; also called peptide F4_1; 4_1; source: digest of recombinant FGF4 with immobilized bovine chymotrypsin

Target: T1, extracellular domain (ECD) of FGFR1 …
Test: peptide or protein array; PepSpot: 15-residue peptides spanning FGF4 covalently bound to a cellulose membrane; blocked with 3% BSA in TBS-T; probed with HiLyte488-labelled FGFR1-Fc or Fc domain (0.1 µg/ml in blocking buffer) overnight at 4°C
Conditions: both partners purified

binding result | Binder
binds | B1
binds | B2
binds | B3
binds | B4
binds | B5

Target: T1, extracellular domain (ECD) of FGFR1 …
Test: SPR; Biacore 3000, 25°C, PBS with 0.05% Tween20, 0.1% BSA, 0.02% NaN3, pH 7.4; FGFR1 ECD-Fc amine-coupled on CM5 at 8800 RU; peptibodies 0.15-4.8 μM or FGF4 75-600 nM injected at 30 μl/min; steady-state affinity analysis for the peptibodies
Conditions: both partners purified

Kd | Binder
2990 nM | B6
65.7 nM | B7
1090 nM | B8

Target: T1, extracellular domain (ECD) of FGFR1 …
Test: affinity purification with mass spectrometry; chymotryptic peptides of FGF4 incubated 1 h at 4°C with ECD_FGFR1-Fc or, in parallel, Fc domain immobilized on rProtein A Fast Flow resin; washed (0.1 M NaCl, phosphate); eluted with 0.1 M sodium citrate pH 3.5; peptides identified by MS
Conditions: both partners purified

binding result | Binder
binds | B9
binds | B10
